Assay: soluble on expression in E. coli; label from the status in PepcDB or PDB records

Row | Sequence | soluble on expression in E. coli
1 | MQSVDVAIVGGGMVGLAVACGLQGSGLRVAVLEQRVQEPLAANAPPQLRVSAINAASEKLLTRLGVWQDILSRRASCYHGMEVWDKDSFGHISFDDQSMGYSHLGHIVENSVIHYALWNKAHQSSDITLLAPAELQQVAWGENETFLTLKDGSMLTARLVIGADGANSWLRNKADIPLTFWDYQHHALVATIRTEEPHDAVARQVFHGEGILAFLPLSDPHLCSIVWSLSPEEAQRMQQASEDEFNRALNIAFDNRLGLCKVESARQVFPLTGRYARQFASHRLALVGDAAHTIHPLAGQGVNLGFMDAAELIAELKRLHRQGKDIGQYIYLRRYERSRKHSAALMLAGMQGFRDLFSGTNPAKKLLRDIGLKLADTLPGVKPQLIRQAMGLNDLPEWLRLEHHHHHH | not soluble
2 | MAHHHHHHMAACRSTPLTSSPVACEQAHRQPTIVDRDYEASKYWKSHRCRRIPKATGLTAVLITNPGLSVFTHQPHSRTNTVQGRKSCQGQQTTGRQLQISGNRAVADSVPRSQKNSVTAAWSV | not soluble
3 | MGSDKIHHHHHHMRYFARIAELGSFTRAASELGVAQPALSLHVRALEDQLGLQLLNRTSRGVVVTEAGQTLLVHAQAILRAVEQAEAATREQAKYPSGDVSLGILSSLSPILSIPVLEACDRRFPKIRLTISEGDSQTLRTATDIHAHDLAVNLLDVAKPTAVPLFDERLYAVGPLNAFTQRQNDLPLREALSLPLIMPSQRHGIRILLEKQALILGQKINIVRVIEGVASTKAAIRAGLGLTILGRGAVYADHQAGQLSVIPLRAPELFRRLVLDMPVNHPPTKAVLEVRQILMEVIKRLGGEGHWSCLA | not soluble
4 | SLKEPRWRDPELPEVLAMLRHPVDPVKANAAAYLQHLCFENEGVKRRVRQLRGLPLLVALLDHPRAEVRRRACGALRNLSYGRDTDNKAAIRDCGGVPALVRLLRAARDNEVRELVTGTLWNLSSYEPLKMVIIDHGLQTLTHEVIVPHSGWEREPNEDSKPRDAEWTTVFKNTSGCLRNVSSDGAEARRRLRECEGLVDALLHALQSAVGRKDTDNKSVENCVCIMRNLSYHVHKEVPGADRYQEAEPGPLGSAVGSQRRRRDDASCFGGKKAKEEWFHQGKKDGEMDRNFDTLDLPKRTEAAKGFELLYQPEVVRLYLSLLTESRNFNTLEAAAGALQNLSAGNWMWATYIRATVRKERGLPVLVELLQSETDKVVRAVAIALRNLSLDRRNKDLIGSYAMAELVRNVRNAQAPPRPGACLEEDTVVAVLNTIHEIVSDSLDNARSLLQARGVPALVALVASSQSVREAKAASHVLQTVWSYKELRGTLQKDGWTKARFQSAAATAKGPK | soluble
5 | MAGGGNFIARVISYVANEFIVNGLANSHAFQRFAVRTSKRIENLSKMAAENREKVAQQMEEFAKNIDVIHEETLIILVWNLKTSVNHMGQLK | not soluble
6 | MGHHHHHHHHMTTSILDTYPQICSPNALPGTPGNLTKEQEEALLQFRSILLEKNYKERLDDSTLLRFLRARKFDINASVEMFVETERWREEYGANTIIEDYENNKEAEDKERIKLAKMYPQYYHHVDKDGRPLYFEELGGINLKKMYKITTEKQMLRNLVKEYELFATYRVPACSRRAGYLIETSCTVLDLKGISLSNAYHVLSYIKDVADISQNYYPERMGKFYIIHSPFGFSTMFKMVKPFLDPVTVSKIFILGSSYKKELLKQIPIENLPVKYGGTSVLHNPNDKFYYSDIGPWRDPRYIGPEGEIPNIFGKFTVTS | soluble
7 | MKKAKLGKSDLQVFPIGLGTNAVGGHNLYPNLNEETGKELVREAIRNGVTMLDTAYIYGIGRSEELIGEVLREFNREDVVIATKAAHRKQGNDFVFDNSPDFLKKSVDESLKRLNTDYIDLFYIHFPDEHTPKDEAVNALNEMKKAGKIRSIGVSNFSLEQLKEANKDGLVDVLQGEYNLLNREAEKTFFPYTKEHNISFIPYFPLVSGLLAGKYTEDTTFPEGDLRNEQEHFKGERFKENIRKVNKLAPIAEKHNVDIPHIVLAWYLARPEIDILIPGAKRADQLIDNIKTADVTLSQEDISFIDKLFAPG | soluble
8 | MAASLGLAAAAASAWAQAPAMDHGSMPGMDHGAAPASAMDHGSMPGMDHGAAPAPAIGALPSSDGAGDQSYAAYGIHSHMMDDMATSQLLFDKLGMTYDRDRRTGLQWDGQFWVGRDLDKLWIKSEGERVGGRSDGKVEAFWNRTISPFWDLQVGARRDFGTGPKRNWGAIGLQGVAPYNIETEVTAYVGGSGRTALALKAEYDLLLTQRLVLTPEIEASVYGKDDKARGIGAGLSDASFSLRLRYEITREVAPYVGVSFGRKFGRTASYASEEGESRSERAIMAGVRIWFLEHHHHHH | not soluble
9 | MMKKILVACGTGMSTSTMIAQKLQDFLAEQGIAATTAQCCLNEIPLNCNGMDLIVTSMRTHSDYGIPTLNGAALLTGINDDALKQEIKALLTQ | not soluble
10 | LNHETITKRTLLSSLMETNSLNYPNQVKLSERLAELYGASFGIGVSKKGNQHWFNISMNIVNDHYLQDSQVLAEAVDFLKEIIFAPNIQAGQFEAETFQREKENLKAYLESIVED | not soluble
11 | MANKLRNYTINFGPQHPAAHGVLRMILELDGEQIVRADPHIGLLHRGTEKLAETKTYLQALPYMDRLDYVSMMVNEQAYCLAVEKLVGIDVPIRAQYIRVMFAEVTRILNHLMGIGSHAFDIGAMTAILYAFRDREELMDLYEAVSGARMHAAYFRPGGVYRDLPDFMPKYEGSKFRNAKVLKQLNESREGTMLDFIDAFCERFPKNIDTLETLLTDNRIWKQRTVGIGVVSPERAMQKGFTGVMLRGSGVEWDVRKTQPYEVYDKMDFDIPVGVNGDCYDRYLCRMEEMRQSVRIIKQCSEWLRVNPGPVITTNHKFAPPKRTEMKTGMEDLIHHFKLFTEGMHVPEGETYTAVEHPKGEFGVYIISDGANKPYRLKIRAPGFAHLQGMDEMAKGHMLADVVAIIGTQDIVFGEVDR | not soluble
12 | AESLSGLSLKLVKKEPRQLELTWAGSRPRNPGGNLSYELHVLNQDEEWHQMVLEPRVLLTKLQPDTTYIVRVRTLTPLGPGPFSPDHEFRTSPP | soluble
13 | MAHDLQKMMDGELVRLQLEIKKEQERRLAEKMIPVFGVWQSPINQYEFADPEQAISCAAGLLDKVLREVKDDLSKEGGLQGWNGNLLRIYVQHVNESDFAVLQPYLKDK | not soluble
14 | MAHHHHHHMFSESDRRVRYTKGIGPQEASKEGGLLGDEGGKTWRMPKDKPQQNPASVDDNRIDDSIARGDGDNARDSGDGPGDNFLFTPTAARVDVHPLVLLSLVDHYARVNTKVTQKRRVAGLLLGRYKRLPDGTQLLDINNSFAVPFDEDPHNSDVWFVDTNYADEMFHMFRRVLPRVQVVGWYSAGPSFSVQPNDMLLHLLVADRFTANPVYCIVNTDPGNKGVPVLAYTTVQGREGVRSLEFRNIPTHLGAEEAEEIGIEHLLRDLTDSTITTLSTQIQERELSLAHLSCVLQSIEDYLQDVAEGLMPISEDVLSVLQELISLQPHIYHLKRSTEMIRHSNDQAIAMFIAAIGRCVGALYDVIANRRRINSEMVEVRARREQALKEKLEHEQHKAKEVVTTEKDENNNAK | not soluble
15 | MGDEVGRGHFGYTCAAKIKKGARKGDAVAVKVIPKAKMTTSIAIEDVRREVKILKALAGHKNLVQFYDAYEDNDNVYIVMELCEGGELLDRILSRGGKYSEDDAKAVLVQILNVVSFCHIQGVVHRDLKPENFLFTSKDENSQLKAIDFGLSDFVKPDERLNDIVGSAYYVAPEVLHRCYSTEADVWSIGVIAYILLCGSRPFWARTESGIFRSVLKADPSYNEAPWPSLTLEAMDFVKRLLCKDPRRRMTAAQALSHPWIRNYNDIKLPLDILIFRLIKAYIRSSSLRKAALRALSKTLTVDELFYLKGQFSLLEPDRNGCITLDNIRMALTREATYAMKESRVQEILVSLSALQYRRMDFQEFCAAAVSVHQLEALDRWEQHARSAYDFFEKDGNRAIVIDELASELGLSPSVPLHVVLQDWIRHTDGKLSFLGFVKLLHGMSSRSLSKMR | not soluble
16 | MGSDKIHHHHHHNEEIEKAVQPVEISFNTAVSKTTRATTLVNSAFTKFTAYAYSTTGAFADATKVNALISGAEFTKGENSAWGSGNSVFYWPATDQVSFFAFSPNTTKQLSWGAAVANTAPTLTYTVEGTVEKQEDLVVAEAMNKQKATSGSTEAVALNFKHALTKVGFKIKGEGSGVTYTLNKIVINAKNKGVYTYGATSTTNETTLGTWTIPSDATATAYTVEPTEALSITGADNGGTANETLVEADYTAMLIPQNLTGVTFEIYYKAEAGGAILCDKTTTPEEITFTDGTWTAGQSVAYVLTLKGVEKMSITGSVADSWDFTETPK | not soluble
17 | ESIQRPTPINQVFPDPGLANAVKQNLGKQSVTDLVSQKELSGVQNFNGDNSNIQSLAGMQFFTNLKELHLSHNQISDLSPLKDLTKLEELSVNRNRLKNLNGIPSACLSRLFLDNNELRDTDSLIHLKNLEILSIRNNKLKSIVMLGFLSKLEVLDLHGNEITNTGGLTRLKKVNWIDLTGQKCVNEPVKYQPELYITNTVKDPDGRWISPYYISNGGSYVDGCVLWELPVYTDEVSYKFSEYINVGETEAIFDGTVTQPIKN | soluble
18 | MAKKTSSKGKLPPGPSPLPVLGNLLQMDRKGLLRSFLRLREKYGDVFTVYLGSRPVVVLCGTDAIREALVDQAEAFSGRGKIAVVDPIFQGYGVIFANGERWRALRRFSLATMRDFGMGKRSVEERIQEEARCLVEELRKSKGALLDNTLLFHSITSNIICSIVFGKRFDYKDPVFLRLLDLFFQSFSLISSFSSQVFELFSGFLKYFPGTHRQIYRNLQEINTFIGQSVEKHRATLDPSNPRDFIDVYLLRMEKDKSDPSSEFHHQNLILTVLSLFFAGTETTSTTLRYGFLLMLKYPHVTERVQKEIEQVIGSHRPPALDDRAKMPYTDAVIHEIQRLGDLIPFGVPHTVTKDTQFRGYVIPKNTEVFPVLSSALHDPRYFETPNTFNPGHFLDANGALKRNEGFMPFSLGKRICLGEGIARTELFLFFTTILQNFSIASPVPPEDIDLTPRESGVGNVPPSYQIRFLARHHHHHH | soluble
19 | KNSFNIKLKEDSEMLEEVVVTGYGGKQLRTKVTNSIAKVKDEALKVGLFSNPAQALSGAVAGLKVTQASGSPGAAPKVTLRGGTNFDGSGDPLVIVDGQLRDGMQDINPEDIESMEVLKDAGATAIYGARASNGVILITTKTGKEGR | not soluble
20 | MGSDKIHHHHHHVQHDQAPEVYSDLIQMVWALFTPSTVNFFSKGLCANAPFIMEMVDFEALKTVEEDVYLNAYNLTDHKMAIFGKDILDYEHFGATLAYPFIYPPAKVDGKLYLEGAAEDAFNFQGLLEHDEGIRTVVVFDAFGNEGYIQDPPNLWQAWGQNLILPLISLTRHDLAFFEHMLDDWNESHPARQDVELIKVTFPIPPEWLPTALDWSRSNLERMFELGYETGKKFVAEKGVRLGATLPPKPTPAKGRGGAAKKDDDAMFGGASIG | not soluble
21 | GKPFSYGASFNLTFARNRYLRYPDSPNTVEWRKRTGRSVDASVVWVAEGLFRSEEEIDNSAWYGTRPNVGDIKYKDLNGDGKIDEDDRTRVGRGNRPELTYGLNLNCAWNGFDLSAQFTGGALFDVSLTGTYYNGYDDNTVWTQAFKEGANSPLYLVQNAYTTENPNGTFPRLTLGNQGHGGDNGLASTFWLRNGRYLRLKSAQLGYTFPKKWMSPVGIQNLRIYVEGSNLFTISGLPDGIDPESPGVNNGYYPQQRTIMGGITLTF | not soluble
22 | MTQEAIFKAIREREMKVLNIQVTSSCNYACGMCPFHGDGYSGEYFDERPTIRRDMSLDEIKLILEKASMEGFEWIDLTPNGEFFTHKQWYQILSLIKEFGLKIMITSNGGLLGEEDIKRACEVGVDHIVISVDSLSYESYKKIRKPATKLAFERAIHAPLYFKKYGGDSIYVQIQITEQPEFPHEALGVLDFYKDKGLNQISLKKMFVTGEDGIGHIGVEKLEYTHGKCKAYGSPIVMTDGTVLPCCGAFYFYPKLGEKIPNIFNHTIFESARILDDLYERDSLFGSYCRNCSLYDSSRKAAPVKFIFGDYYAEQTLFETRYFILPKYLRFLPSLAILWLYKKGYARKIKQWLVAAQ | not soluble
